Measurements as given in patent US20230242586A1 (University of California, published 2023).
Bridge positions count the residues as written; N and C are the ends. Square brackets hold non-standard residues; d marks the D form.

B1: KD1 (peptide)
peptide: {CH2CO}-[dY]IIVTEKFIWVHHCG-NH2
modifications: thioether N-14
notes: Chemically synthesized linker-free thioether macrocycle; in the mRNA display selection the same peptide stood as a peptide-mRNA/cDNA fusion
B2: KD17 (peptide)
peptide: {CH2CO}-[dY]NYPYRPLELGWYCG-NH2
modifications: thioether N-14
notes: as for B1

Molecular target: T1, biotinylated K-Ras(G12D)·GppNHp (His-Avi-TEV-KRAS (G12D)) (human, biotin on the Avi tag (co-expressed BirA))
T1 construct: Loaded with GppNHp; the protocol for the biotinylated proteins tells of no tag cleavage; Used in the TR-FRET assay
Experiment: TR-FRET Ras-Raf interaction assay: biotinylated K-Ras(G12D)·GppNHp with GST-Raf1-RBD, peptide titrated (competition)

Binder	binding result
B1	binds
B2	binds
